Laboratory results as given in publication PMC10813790, “Lymphocyte-Specific Protein 1 Regulates Expression and Stability of Endothelial Nitric Oxide Synthase” (Biomolecules, 2024).

Target: the molecule itself
Assay: low-temperature SDS-PAGE; aorta lysates of WT and LSP1-KO mice in NP40-based non-denaturing buffer (crude or after eNOS immunoprecipitation), not boiled, no reducing agent, 7% gel at 4 °C; anti-eNOS immunoblot; dimer to monomers

B1: endothelial nitric oxide synthase (eNOS), mouse, native (enzyme, mouse (endogenous in aorta), UniProt P70313 1-1202, looked up)
chain: MGNLKSVGQEPGPPCGLGLGLGLGLCGKQGPASPAPEPSQAPAPPSPTRPAPDHSPPLTRPPDGPRFPRVKNWEVGSITYDTLSAQAQQDGPCTSRRCLGSLVFPRKLQSRPTQGPSPTEQLLGQARDFINQYYNSIKRSGSQAHEQRLQEVEAEVAATGTYQLRESELVFGAKQAWRNAPRCVGRIQWGKLQVFDARDCRTAQEMFTYICNHIKYATNRGNLRSAITVFPQRCPGRGDFRIWNSQLIRYAGYRQQDGSVRGDPANVEITELCIQHGWTPGNGRFDVLPLLLQAPDEPPELFTLPPEMVLEVPLEHPTLEWFAALGLRWYALPAVSNMLLEIGGLEFPAAPFSGWYMSSEIGMRDLCDPHRYNILEDVAVCMDLDTRTTSSLWKDKAAVEINVAVLHSYQLAKVTIVDHHAATASFMKHLENEQKARGGCPADWAWIVPPISGSLTPVFHQEMVNYFLSPAFRYQPDPWKGSAAKGAGITRKKTFKEVANAVKISASLMGTVMAKRVKATILYGSETGRAQSYAQQLGRLFRKAFDPRVLCMDEYDVVSLEHEALVLVVTSTFGNGDPPENGESFAAALMEMSGPYNSSPRPEQHKSYKIRFNSVSCSDPLVSSWRRKRKESSNTDSAGALGTLRFCVFGLGSRAYPHFCAFARAVDTRLEELGGERLLQLGQGDELCGQEEAFRGWAQAAFQAACETFCVGEDAKAAARDIFSPKRSWKRQRYRLSTQAESLQLLPGLTHVHRRKMFQATILSVENLQSSKSTRATILVRLDTGGQEGLQYQPGDHIGVCPPNRPGLVEALLSRVEDPPPSTEPVAVEQLEKGSPGGPPPGWVRDPRLPPCTLRQALTYFLDITSPPSPRLLRLLSTLAEESSEQQELEALSQDPRRYEEWKWFSCPTLLEVLEQFPSVALPAPLILTQLPLLQPRYYSVSSAPSAHPGEIHLTIAVLAYRTQDGLGPLHYGVCSTWMSQLKAGDPVPCFIRGAPSFRLPPDPNLPCILVGPGTGIAPFRGFWQDRLHDIEIKGLQPAPMTLVFGCRCSQLDHLYRDEVLDAQQRGVFGQVLTAFSRDPGSPKTYVQDLLRTELAAEVHRVLCLEQGHMFVCGDVTMATSVLQTVQRILATEGGMELDEAGDVIGVLRDQQRYHEDIFGLTLRTQEVTSRIRTQSFSLQERQLRGAVPWSFDPPGPEIPGS
notes: mouse endothelial nitric oxide synthase, native protein of the aorta; dimer band at 260 kDa; Written as the protomer, for the row of the protein with itself; also called mouse eNOS; WT eNOS; source: endogenous, aorta lysate of 129/SvJ wild-type mice (also LSP1-KO mice)
stoichiometry N: 2
